Results reported in patent US20230143604A1, “QW DOSING OF GIP RECEPTOR AGONIST PEPTIDE COMPOUNDS AND USES THEREOF” (TAKEDA PHARMACEUTICAL COMPANY LIMITED, priority 2020, published 2023).
Starred links: 1 amine or outer side, 2 acyl side, 3 side chain; linkers in the order of their positions; H or OH if unused. Non-standard residues stand in square brackets, D forms with d. Groups on a side chain read outwards from the residue. No end group written: not given here. *: point of attachment. C17 diacid = O=C(O)CCCCCCCCCCCCCCCC(=O)*; γGlu = O=C(O)[C@H](CCC(=O)[*:2])N[*:1]; NMeY = CN[C@@H](Cc1ccc(O)cc1)C(=O)O; AEEA = NCCOCCOCC(=O)O; Aib = CC(C)(N)C(=O)O

Legend:
[1] = molecular target: full-length human GLP-1R with an N-terminal FLAG tag (human, UniProt P43220 24-463); test: cell-based or functional assay
[2] = molecular target: T1, full-length human GIPR with an N-terminal FLAG tag (human, UniProt P48546 22-466); test: cell-based or functional assay
T1 sequence (looked up): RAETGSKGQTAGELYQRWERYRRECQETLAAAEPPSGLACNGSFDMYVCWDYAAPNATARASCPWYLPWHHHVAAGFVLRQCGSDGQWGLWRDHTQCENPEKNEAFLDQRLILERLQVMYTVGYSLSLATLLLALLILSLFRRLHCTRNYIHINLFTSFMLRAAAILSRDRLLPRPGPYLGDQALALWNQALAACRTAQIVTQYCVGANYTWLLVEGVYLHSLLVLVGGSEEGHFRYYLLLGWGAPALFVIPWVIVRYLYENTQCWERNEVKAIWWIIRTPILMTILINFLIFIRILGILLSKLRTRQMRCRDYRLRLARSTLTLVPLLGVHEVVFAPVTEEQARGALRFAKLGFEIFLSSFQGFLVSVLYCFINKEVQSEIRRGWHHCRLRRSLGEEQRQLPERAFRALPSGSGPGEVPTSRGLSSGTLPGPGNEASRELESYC

Binder | Human GLP1R cAMP EC50, HEK293T [1] [nM] | Human GIPR cAMP EC50, HEK293T [2] [nM]
H-Y[Aib]EGTFISDYSIALDK[Aib]AQAK([AEEA-AEEA-γGlu-γGlu-C17 diacid])FVEWLLAQRG-OH (SMILES CC[C@H](C)[C@H](NC(=O)[C@H](CO)NC(=O)[C@H](Cc1ccc(O)cc1)NC(=O)[C@H](CC(=O)O)NC(=O)[C@H](CO)NC(=O)[C@@H](NC(=O)[C@H](Cc1ccccc1)NC(=O)[C@@H](NC(=O)CNC(=O)[C@H](CCC(=O)O)NC(=O)C(C)(C)NC(=O)[C@@H](N)Cc1ccc(O)cc1)[C@@H](C)O)[C@@H](C)CC)C(=O)N[C@@H](C)C(=O)N[C@@H](CC(C)C)C(=O)N[C@@H](CC(=O)O)C(=O)N[C@@H](CCCCN)C(=O)NC(C)(C)C(=O)N[C@@H](C)C(=O)N[C@@H](CCC(N)=O)C(=O)N[C@@H](C)C(=O)N[C@@H](CCCCNC(=O)COCCOCCNC(=O)COCCOCCNC(=O)CC[C@H](NC(=O)CC[C@H](NC(=O)CCCCCCCCCCCCCCCC(=O)O)C(=O)O)C(=O)O)C(=O)N[C@@H](Cc1ccccc1)C(=O)N[C@H](C(=O)N[C@@H](CCC(=O)O)C(=O)N[C@@H](Cc1c[nH]c2ccccc12)C(=O)N[C@@H](CC(C)C)C(=O)N[C@@H](CC(C)C)C(=O)N[C@@H](C)C(=O)N[C@@H](CCC(N)=O)C(=O)N[C@@H](CCCNC(=N)N)C(=O)NCC(=O)O)C(C)C) [Compound No. 131] | 151 | 0.0004
H-Y[Aib]EGTFISDYSIALDK[Aib]AQQK([AEEA-AEEA-γGlu-γGlu-C17 diacid])FVEWLLAQRG-OH (SMILES CC[C@H](C)[C@H](NC(=O)[C@H](CO)NC(=O)[C@H](Cc1ccc(O)cc1)NC(=O)[C@H](CC(=O)O)NC(=O)[C@H](CO)NC(=O)[C@@H](NC(=O)[C@H](Cc1ccccc1)NC(=O)[C@@H](NC(=O)CNC(=O)[C@H](CCC(=O)O)NC(=O)C(C)(C)NC(=O)[C@@H](N)Cc1ccc(O)cc1)[C@@H](C)O)[C@@H](C)CC)C(=O)N[C@@H](C)C(=O)N[C@@H](CC(C)C)C(=O)N[C@@H](CC(=O)O)C(=O)N[C@@H](CCCCN)C(=O)NC(C)(C)C(=O)N[C@@H](C)C(=O)N[C@@H](CCC(N)=O)C(=O)N[C@@H](CCC(N)=O)C(=O)N[C@@H](CCCCNC(=O)COCCOCCNC(=O)COCCOCCNC(=O)CC[C@H](NC(=O)CC[C@H](NC(=O)CCCCCCCCCCCCCCCC(=O)O)C(=O)O)C(=O)O)C(=O)N[C@@H](Cc1ccccc1)C(=O)N[C@H](C(=O)N[C@@H](CCC(=O)O)C(=O)N[C@@H](Cc1c[nH]c2ccccc12)C(=O)N[C@@H](CC(C)C)C(=O)N[C@@H](CC(C)C)C(=O)N[C@@H](C)C(=O)N[C@@H](CCC(N)=O)C(=O)N[C@@H](CCCNC(=N)N)C(=O)NCC(=O)O)C(C)C) [Compound No. 130] | 95.5 | 0.0003
H-Y[Aib]EGTFISDYSI[Aib]LDKIAQQK([AEEA-AEEA-γGlu-γGlu-C17 diacid])FVEWLLAQRG-OH (SMILES CC[C@H](C)[C@H](NC(=O)[C@H](CCCCN)NC(=O)[C@H](CC(=O)O)NC(=O)[C@H](CC(C)C)NC(=O)C(C)(C)NC(=O)[C@@H](NC(=O)[C@H](CO)NC(=O)[C@H](Cc1ccc(O)cc1)NC(=O)[C@H](CC(=O)O)NC(=O)[C@H](CO)NC(=O)[C@@H](NC(=O)[C@H](Cc1ccccc1)NC(=O)[C@@H](NC(=O)CNC(=O)[C@H](CCC(=O)O)NC(=O)C(C)(C)NC(=O)[C@@H](N)Cc1ccc(O)cc1)[C@@H](C)O)[C@@H](C)CC)[C@@H](C)CC)C(=O)N[C@@H](C)C(=O)N[C@@H](CCC(N)=O)C(=O)N[C@@H](CCC(N)=O)C(=O)N[C@@H](CCCCNC(=O)COCCOCCNC(=O)COCCOCCNC(=O)CC[C@H](NC(=O)CC[C@H](NC(=O)CCCCCCCCCCCCCCCC(=O)O)C(=O)O)C(=O)O)C(=O)N[C@@H](Cc1ccccc1)C(=O)N[C@H](C(=O)N[C@@H](CCC(=O)O)C(=O)N[C@@H](Cc1c[nH]c2ccccc12)C(=O)N[C@@H](CC(C)C)C(=O)N[C@@H](CC(C)C)C(=O)N[C@@H](C)C(=O)N[C@@H](CCC(N)=O)C(=O)N[C@@H](CCCNC(=N)N)C(=O)NCC(=O)O)C(C)C) [Compound No. 129] | 115 | 0.0004
YXEGTFISDYSIAXDRXAQXDFVNWLLAQSPG (N-terminus H; Aib at 2,17,20; Lys(G5-C18 diacid) at 14; C-terminal OH) [Compound No. 128] | 7.24 | 0.0009
[NMeY][Aib]EGTFISDYSI[Aib]LDR[Aib]AQ[Aib]K([AEEA-AEEA-γGlu-γGlu-C17 diacid])FVNWLLAQSPG-OH (N-terminus assumed; SMILES CC[C@H](C)[C@H](NC(=O)[C@H](Cc1ccccc1)NC(=O)[C@@H](NC(=O)CNC(=O)[C@H](CCC(=O)O)NC(=O)C(C)(C)NC(=O)[C@H](Cc1ccc(O)cc1)NC)[C@@H](C)O)C(=O)N[C@@H](CO)C(=O)N[C@@H](CC(=O)O)C(=O)N[C@@H](Cc1ccc(O)cc1)C(=O)N[C@@H](CO)C(=O)N[C@H](C(=O)NC(C)(C)C(=O)N[C@@H](CC(C)C)C(=O)N[C@@H](CC(=O)O)C(=O)N[C@@H](CCCNC(=N)N)C(=O)NC(C)(C)C(=O)N[C@@H](C)C(=O)N[C@@H](CCC(N)=O)C(=O)NC(C)(C)C(=O)N[C@@H](CCCCNC(=O)COCCOCCNC(=O)COCCOCCNC(=O)CC[C@H](NC(=O)CC[C@H](NC(=O)CCCCCCCCCCCCCCCC(=O)O)C(=O)O)C(=O)O)C(=O)N[C@@H](Cc1ccccc1)C(=O)N[C@H](C(=O)N[C@@H](CC(N)=O)C(=O)N[C@@H](Cc1c[nH]c2ccccc12)C(=O)N[C@@H](CC(C)C)C(=O)N[C@@H](CC(C)C)C(=O)N[C@@H](C)C(=O)N[C@@H](CCC(N)=O)C(=O)N[C@@H](CO)C(=O)N1CCC[C@H]1C(=O)NCC(=O)O)C(C)C)[C@@H](C)CC) [Compound No. 126] | 30.9 | 0.0004
[NMeY][Aib]EGTFISDYSI[Aib]LDR[Aib]AQ[Aib]K([AEEA-AEEA-γGlu-γGlu-C17 diacid])FVNWLLAQRG-OH (N-terminus assumed; SMILES CC[C@H](C)[C@H](NC(=O)[C@H](Cc1ccccc1)NC(=O)[C@@H](NC(=O)CNC(=O)[C@H](CCC(=O)O)NC(=O)C(C)(C)NC(=O)[C@H](Cc1ccc(O)cc1)NC)[C@@H](C)O)C(=O)N[C@@H](CO)C(=O)N[C@@H](CC(=O)O)C(=O)N[C@@H](Cc1ccc(O)cc1)C(=O)N[C@@H](CO)C(=O)N[C@H](C(=O)NC(C)(C)C(=O)N[C@@H](CC(C)C)C(=O)N[C@@H](CC(=O)O)C(=O)N[C@@H](CCCNC(=N)N)C(=O)NC(C)(C)C(=O)N[C@@H](C)C(=O)N[C@@H](CCC(N)=O)C(=O)NC(C)(C)C(=O)N[C@@H](CCCCNC(=O)COCCOCCNC(=O)COCCOCCNC(=O)CC[C@H](NC(=O)CC[C@H](NC(=O)CCCCCCCCCCCCCCCC(=O)O)C(=O)O)C(=O)O)C(=O)N[C@@H](Cc1ccccc1)C(=O)N[C@H](C(=O)N[C@@H](CC(N)=O)C(=O)N[C@@H](Cc1c[nH]c2ccccc12)C(=O)N[C@@H](CC(C)C)C(=O)N[C@@H](CC(C)C)C(=O)N[C@@H](C)C(=O)N[C@@H](CCC(N)=O)C(=O)N[C@@H](CCCNC(=N)N)C(=O)NCC(=O)O)C(C)C)[C@@H](C)CC) [Compound No. 127] | 63.1 | 0.0007
[NMeY][Aib]EGTFISDYSIAK([γGlu-γGlu-γGlu-C17 diacid])DR[Aib]AQ[Aib]NFVNWLLAQSPSSGAPPPS-NH2 [Compound No. 12] | 955 | 0.0002
